Substrate in series [1]: O=[N+]([O-])NC1=NCCN1Cc1ccc(Cl)nc1
In words: substrate depletion, Sf9 microsomes. It counts as biochemical, Laodelphax striatellus. To be noted: 0-50 µM substrate; CPR co-expressed.

Substrate in series [2]: COc1ccc([N+](=O)[O-])cc1
In words: cells, lysate or membranes. It is filed as biochemical, Laodelphax striatellus. To be noted: NADPH, 30 °C, 1 pmol P450, 0-100 µM substrate, CPR co-expressed.

The term Km denotes the substrate concentration at which the rate is half of its maximum. Broadly, the kcat is the maximal rate divided by the concentration of active sites.

B1: CYP353D1v2 (Laodelphax striatellus) (protein)
chain: MVKINGKWLTKYFSTAKVKPYDEIPTLPKWPFLGHAYLFFPNGKYKLERLGDAILDLRRTLGNIFKLNLNGDDLVVSLNPDDARSMYTAEGKLPYRPSFPALANYRKNTFGSIGVVPGNGEEWLHYRKAVLPLLKSNIVVAYAEDHKLIASRFVDYIGRNRGRSNELNDVFNHLLKFAIEATSITCPGVLFNCLDESLDKSDVSNVVTKASVDFMEGMYRTLVEPPFWKMWKTKSYRKLEQSHTAIHRLIADGIEKTKEDLKNNPNKHPFMASLFENSTLSENEILVLAMEVFLGGLDATPTTLAMTLHYLAQNPEAQSKAFNEISSQKQLKYVEACLKETLRLAPSAGASSRYLAEEAVLSGYLVPANTLVAVFSPITSRDEKYFHSPLEFIPERWFRENKAMRHPFASIPFGFGARVCPGRHFVNQEMVIFLTEILRNFKLNSNNGQVGMIHRMNRIPDQEIAIFFNDR
notes: with NADPH--cytochrome P450 reductase
B1: the figures for the Km in series [1] and in series [2] were 6.41 ± 1.27 µM and 6.21 ± 0.65 µM, respectively. In addition, in series [1], the kcat came to 0.001 ± 1.3e-05 s⁻¹.

Values taken from PMC5751167, “Buprofezin Is Metabolized by CYP353D1v2, a Cytochrome P450 Associated with Imidacloprid Resistance in Laodelphax striatellus” (International Journal of Molecular Sciences, 2017).
